According to the domain aggregation screens of Martell et al. (2025):

Experiment: soluble fraction after stress (log2 fold change); higher = more stays soluble; pooled small domains, quantitative proteomics
Details: stress: 50 degC
Outline: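 Pooled custom libraries of small protein domains were each held under stress at 50°C. The read-out, high-throughput quantitative proteomics, tracked how much of each protein stayed soluble. This is reported as a base-two log fold change used to indicate aggregation propensity. Higher values mean more protein remains in solution.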

Sequence | soluble fraction (log2)
HMTEDADIERRLTGILASAGWYRSLAVEVKEGIVYLDGATASGNHRDWAGSLAAKTEGVVAVVNRIEVQP | -0.238
HMIIIMKPNASEEAVRKVTHIIESKGLQVHLSKGSQVTIVGVVGDKTRLQGSNIEISEGVDKVVAVT | -0.0139
HMFLPETEVKSFFHRGITKISPSLAMDIADFFRMPFAVILKRALALEVISDEQYRSFMTVKPEHV | -0.014
HMDVIDDAQAMEIALEDAGLSMDDLDRYELELHTKRSELVYSIELKSGTEEYEYDLRAADGTILKRDTDF | -0.168
HMTTGREGLIGAVGTVRQAIAPEGYVFVEGELWRAKSPAGPLEPGTTVRVIAIDGLTLTVMPAE | -0.348
HMNGLNISYRMDGENVVETIVFPDATMIRTIAPNGVMTIKTIEDGSVSTSELKADYKLYKKIYESQY | -0.262
HMQDREIHIHAGREVLEKELSRLSLHLKNTNLQEYAARFNVKTAEDILAGIGAGDIRPAHVVNLIADKL | 0.0629
HMFIMQTVALGSEGPDVRALQSILNRIGYNAGTVDGIFGSRTRQAVIAFQRNNGLAADGVAGPATWG | 0.122
HMAPAPDEAFAEFVRSSAPSLTRTAWLLTGDRGHAQDLVQNAYAKTLQAWGRLDAEGALAYTRRAVIT | 0.00536
HMSRLQDAELQAQIDKMAGAMQLRDIPVYVQDIPTINGLAAPDGRVFITQGFIDKYKLGEVSAGEIASVI | 0.36
HMATAPQIRAIYALGSKLGINQNSREDNLHQLVYSITGKESIKGLTNYEAARVQSELANMERK | 0.22
HMVQIQDIAFSEFLNELEKGNILDVNIKGDLINGNMLDGKKFKTYAPYDPSLVEKLSKQNVTINVEPVN | 0.0938
HMKAILHQESRSGFANATVIGGLDKFLDTNWNQLSKYIKKIETPYSDRSLEDRKIWISTILGILSTEI | 0.45
HMQSRYALLAGMLRARITEGDWVPGSAIPAETVLAKEHGVALGTMRQAIALLVSQGLLERQHGRGTFVRS | -1.16
HMDSVVPNVVGMTAEKANKALTDAGLNVKITGATIGSGAVVHSQSIPAGTVTSKGTVVSIEMRFAAAEGD | -0.135
HMTTMTTGQRIAAKRKEQGLSQENLGEQLGVSRQAIYKWESDASLPDIDKLIALSRLFGVSTDYLLLE | -0.41
HMSDSAFAEMRRELEALRNSNAEYERALSNFFPEAEDKALAAEAFYQNREYDELVAEREEANVIDGLKR | -0.094
HMDPPQEVWDLTRSYLDSMNRPVHGHKSPQETYLRQVKSHRLPATALWDYFMAQRFHAVHATSESAA | -0.0648
HMDEILHHPSYRAIYEYMLDHKHVKTKDIAALLNVKEPRARQLLKEMIDKHFIIALGSNRNREYELL | -0.495
HMTKAEVLLDLQQRIISEEFLPGSWLVERDLSSEYGLSRTPIREILNKLVILGLISVQKNRGYQVR | -1.43
HMGFKLQRYTTFVVERLKKYQDTPAAQMHDLLKEHYPDFPAVSPKTVYNYVMKIRQEHGLPAV | -3.63
HMVEVPEQLRDLLERSIEDLAELSVRSRNSLQKENIQTLGDLVQRTEEEMLGIENFGKKSLTEIAAFL | -0.101
HMQNLETVEEIKELALNYLDKYQPSKKSLQVYLFRKAIDAQSNSVEKSEILKKIETVLTDLEEQGILNDAL | 0.0664

Sequence | soluble fraction (log2)
HMGTRPIQIASFSKEENAKRAVEALAKIGITAQPQKSGSATKAVWGVVANGDADLLAKIKAAGFADAYFL | 0.0667
HMLTALTDREEEILVLLAHNLSNKEIAKRLNLSVNTVRNHTSHIYEKLNVTSRRKAITLAQSLHLLPP | -1.35
HMGIIVDMSKIKQMLQLSEAGHSNRKIALELGINKETVNNYMQLIRNGRLDIRQLLKMDDPELERRFHA | -0.329
HMSISSSEAARSAVASSGGTVLGVSKASHGGYKAWAVRIQRADGSVVTGYVDRASGTVYDWVVNQAA | -0.3
HMLAIKKGGIFAILGPNGSGKSTFSKVLAGHPAYTVVDGDIFFKGLSILDLEPEERSHLGIFLAFQ | -0.153
HMTLDSLEKLSVNDLEKMLVNMPVGYKTIFLLSVIDEYSHKEIGELLGITPETSRSQLFRAIKWIKTNIF | -0.428
HMSDEAGKVLQLLRENGGYLPYNDRSDPEDIYAFFSMSKKTFKMTAGNLYKQKKIIFTNTGIKLTE | -0.856
HMSVNEKVRLFRELNQWSQEEMAERMNMSVAGYAKIERGETNISLHKLKQIASVLQIDLLDLVS | -0.32
HMEKGNEEALEQAREAILAVQSGEKYVDLDPANAAIRRKQHALAQASDLVSQSYGKDPNRYVRIFR | 0.34
HMNDTLQEYFEALERLKSNNPINVPKNTKINNDSVALEAGRKRGSIKKSREIFAELIEAINNAS | -0.0859
HMDEALLRATLLDVLVKHHPKIGDKLDVVFALAKAWVSSGSDDDFEVLEKYMERLKPDEALMLASGFSNML | -0.972
HMAIKTGAVTGHGVKVRKGPSTNEKAIHDVLYGSRLQILEEKNGFLKAKFEDGTTGWISKQFVTTTDKNLL | 0.223
HMAEPLYKQVKNKIIQNLTSDEWKPGSVIPSETKLAETYGVGVSTIRMAIGELVAARILIRRQGKGTFVSS | -1.85
HMVTTTEAAKMLLVNAGHDVIKDGLTGASWASNTMKLADADGLLASVATKPNDALPRQYAAQMIYN | 0.076
HMDTLRPLGRYQNVHLTKQELTALQSEFSDWSERIERLSSYMASTGRKYQNHAATIRLWAEKDK | 0.13
HMGNTTEVLVATQDVKANTKIKESMFTTERVDTASLPDNYLSADSAKDVVGYYTYIGFTKGSVISKSNIAT | 0.0925
HMVDTEVFSRLLRKVLAGDVTSAIRILEELIVGGRELSQFVGDFTWYMRNLLLVKTSDNPEEA | -0.397
HMNQRQKQLLSILEQQGDWMKGKALATLLAVSDRTIRSDIEKINREVEGSILSHPHKGYLLSVENRQIAET | 0.256
HMASVRPVAPPDPKTHTRLTYRIRRGDTLERIGRRYRVSIAEIQAWNTLRDPGDILAGQRLVIWIPTS | -2.3
HMTPYEVLVYESLKQKILSGGYAAGEKIPEQSVSEELGVSRSPLRSAIRRLASEGLIEYYPYRGAFVKA | -0.347
HMAGDDEIEKIAQDILAAWPDKVAAYQAGNKGLMGLFMGELMKKSQGKANPKVASGIIQKLLD | 0.0445
HMGVPELHKGEIVQAVVEKVLGEGLLRVNLKGMTVEAATSLRLNPGQQLLLRSEGIENGRQVLR | 0.00868
HMSATIMVLRASEDIPVGTEIKDNHLTTVEVGSYGLPEGAINDKDTVLGKVAQTNIIKGDYFFPQKLGG | 0.152

Sequence | soluble fraction (log2)
HMQISDSGELEKIVLQVIEENPKPAEQVRSGNEKAIGALVGGVMKATQGRADGGEVNRLLRQHLGL | 0.172
HMPLNRFLNLPHEDKERVLLIAKKQFSTHGYDAMSLNLLLKELDISKGQFYYWFEDKADLFFTVL | 0.0032
HMDTNTIIGLRIKALRTEKKYTLKYLSENSGLSIGFLSQLERGMTSVAIDSLDKISKVLDVELSSFFN | -2.93
HMISSRDAAVIGLVENIQRAQLNAIDESSGFKHLMETYNLESKEIALLVGKSRSYVSNSLRLSK | -0.0196
HMESVDRIYERVRRYADDVGTAKIPMKELDDDGPLGTAVSRIRERRKRGELTEEWEARFETLPGWTWAA | 0.0038
HMAPRLTERERQVLQLIAEGLTSMQIGDRLHIAASTVDVHRRNLMRKLDLHNVADLTRYAITQGISP | -0.0624
HMSTPLVATLRKRIIDGHYPPGERLAEIPVAEAFGVSRTPVRLAFRTLEQEGLLEKAGKRGYAVRA | 0.0325
HMIEQEQAFLEQVLKKYSQEELVLTVGSRTLVKYSAGQLERLLEHYPHVRLASSPVNGEAGFLLSRG | -0.0933
HMPFGIYGGKVSSLDDLKDKAAVLVPNDVSNEARALLLLEAQGLIKLKEGVGLEATRNDIVEN | ≥ 0.62
HMTVDYDKFTKDTVVQHNKFGKGVIIMTSGDGEDKIASIAFQGLGVKRFSLAIAASNLKILGKVNED | -0.133
HMTTGTVKWFNDAKGFGFITPDDRSVDVFVHYSNIVGQSGRRTLMEGERVEYEAIEGPKGPQATDVARA | -0.304
HMSKQKRIKYFLSILNIKSIKQFRKKDLDYFYQKRFIEIQKSSKDKKLVSNQLIELNAAKEYLDEIDFEN | -1.93
HMPPPVDLDKKGYKLRGIVLEDGRSAAFVFVPAEKRVVVLRENASGPVRLLETGMRRIRLQTPEGAGYLEL | -0.724
HMSSDLLGVRVRRARARAGLTRRRLSLLSGVSERFLAQLESGQGNISIVLIRRVAAALGAELVELIGS | -0.74
HMTQSGLTQWEFNMLRQALIEMLGEKPGSVFELARLLPLEQEKNVQALRFLLDHDDQFHLKDEYISFVKRT | -1.92
HMFEFFKGIYSISLLKKDGIFFVTFKDENKEAVKHIFPEKPTALELGIKVMEMFEYKERYDGII | -0.227
HMFKMRVNGKEVIGMAITAKPQANPIDVADEIKKFVIDANTKLPSTMKLEVLYDATGIFRASISEVIS | -0.273
HMVTKQKKLVLTIIERSHGHLSAEEIFFRAREEMPNIALGTVYRNLNSLTEEGIVRRITLPGTSDRFDT | -2.79
HMPLDYNELRSISPKAARQAILQILAANKGNVSATAKLLGVSRKTVYKAMHKKASGNLDDTSRAPK | -0.851
HMTISAQAITPRLEVIKNFVLMEEWDAAQTQLEKLRSFTEIWSLDPLFSAMKKKDGQKISDWITGFIKDNM | -1.15
HMPVEFVKISIKPGHPWENQFVRDIVSLPDLLMVLILRGEERIIPNGNTKILVGDKIVLSALSPG | -0.779
HMEGLDDKTKIILFAGDKKEQEYSLADLKSKLNITENLTESELIKLLEKQGYVLDVNANNEFMFKKD | -0.0985
